Data as given in patent US20080050810A1.
Substitutions are numbered along the chain they refer to.

B1: HuCC49 CDR variant L-1 (antibody, V domains shown)
VH: QVQLVQSGAEVVKPGASVKISCKASGYTFTDHAIHWVKQNPGQRLEWIGYFSPGNDDFKYNERFKGKATLTADTSASTAYVELSSLRSEDTAVYFCTRSLNMAYWGQGTLVTVSS
VL: DIVMSQSPDSLAVSLGERVTLNCKSSQSVLYSSNSKNYLAWYQQKPGQSPKLLIYWASARESGVPDRFSGSGSGTDFTLTISSVQAEDVAVYYCQQYYSYPLTFGAGTKLELK
B2: HuCC49 CDR variant H-3 (antibody, V domains shown)
VH: QVQLVQSGAEVVKPGASVKISCKASGYTFTDHAIHWVKQNPGQRLEWIGYFSPGNDDFKYNERFKGKATLTADTSASTAYVELSSLRSEDTAVYFCTRGGYYGSGSGSNYWGQGTLVTVSS
VL: B1 VL with V29L, S33G, S35Q
B3: HuCC49 CDR variant L-2 (antibody, V domains shown)
VH: B1 VH
VL: B1 VL with V29L, S33G, S35Q, A59T
B4: HuCC49 CDR variant L-3 (antibody, V domains shown)
VH: B1 VH
VL: B1 VL with V29L, S33G, S35Q, Y100T, L102Y, T103S
B5: HuCC49 CDR variant H-2 (antibody, V domains shown)
VH: QVQLVQSGAEVVKPGASVKISCKASGYTFTDHAIHWVKQNPGQRLEWIGWINAGNGNTKYSQKFQGKATLTADTSASTAYVELSSLRSEDTAVYFCTRSLNMAYWGQGTLVTVSS
VL: B1 VL with V29L, S33G, S35Q
B6: HuCC49 CDR variant H-1 (antibody, V domains shown)
VH: B1 VH with D31S, H32Y, I34M
VL: B1 VL with V29L, S33G, S35Q
B7: humanized monoclonal antibody HuCC49 (parental HuCC49) (antibody, V domains shown)
VH: B1 VH
VL: B1 VL with V29L, S33G, S35Q
B8: HuCC49 CDR variant L-1,2 (antibody, V domains shown)
VH: B1 VH
VL: B1 VL with A59T
B9: HuCC49 variant MAb ^97L1,2/^60-62,64H (antibody, V domains shown)
VH: B1 VH with N61S, E62Q, R63K, K65Q
VL: B1 VL with A59T, T103S
B10: HuCC49 SDR variant ^97L (antibody, V domains shown)
VH: B1 VH
VL: B1 VL with V29L, S33G, S35Q, T103S
B11: HuCC49 variant ^97L1,2 (antibody, V domains shown)
VH: B1 VH
VL: B1 VL with A59T, T103S
B12: HuCC49 variant MAb ^97L/^60-62,64H (antibody, V domains shown)
VH: B1 VH with N61S, E62Q, R63K, K65Q
VL: B1 VL with V29L, S33G, S35Q, T103S
B13: HuCC49 SDR variant ^60-62,64H (antibody, V domains shown)
VH: B1 VH with N61S, E62Q, R63K, K65Q
VL: B1 VL with V29L, S33G, S35Q

What follows are binders tested against anti-CC49 variable region antibodies in the serum of patient one (assay: HPLC, 125I-HuCC49 + serum + 5 Tg competitor; fewer complexes = competitor bound).
Binder B1 has a percent of complexes of 16%.
Work on B2 yielded a percent of complexes of 7.3%.
B3 gave a percent of complexes of 2.7%.
Binder B4 has a percent of complexes of 34.8%.
In the case of B5, the percent of complexes is reported as 32.7%.
In the case of B6, the percent of complexes is reported as 10.2%.
In the case of B7, the percent of complexes is reported as 0%.
B8 gave a percent of complexes of 24.6%.

Each binder was assayed against anti-CC49 variable region antibodies in the serum of patient six in the same assay as above.
Work on B1 yielded a percent of complexes of 16.9%.
For B2, the percent of complexes was 6.7%.
In the case of B3, the percent of complexes is reported as 3%.
B4 was tested, and the percent of complexes was 33.5%.
With B5 the percent of complexes was 29.7%.
B6 was tested, and the percent of complexes was 5.8%.
B7 was tested, and the percent of complexes was 1.5%.
B8 showed a percent of complexes of 15.7%.

Each binder was assayed against anti-CC49 variable region antibodies in the serum of patient two in the same assay as above.
In the case of B1, the percent of complexes is reported as 10.1%.
In the case of B2, the percent of complexes is reported as 8.2%.
With B3 the percent of complexes was 4.4%.
B4 showed a percent of complexes of 37.6%.
With B5 the percent of complexes was 24.7%.
B6 was tested, and the percent of complexes was 7%.
For B7, the percent of complexes was 0.5%.
B8 showed a percent of complexes of 19.4%.

Each binder was assayed against anti-CC49 variable region antibodies in the serum of patient four in the same assay as above.
B1 showed a percent of complexes of 9.8%.
B2 was tested, and the percent of complexes was 3.7%.
B3 gave a percent of complexes of 2.7%.
With B4 the percent of complexes was 22.4%.
For B5, the percent of complexes was 12.7%.
For B6, the percent of complexes was 3.3%.
With B7 the percent of complexes was 2.6%.
Binder B8 has a percent of complexes of 12.6%.

These binders were tested against anti-CC49 variable region antibodies in the serum of patient five in the same assay as above.
B1 gave a percent of complexes of 14.3%.
With B2 the percent of complexes was 4.6%.
Work on B3 yielded a percent of complexes of 2.4%.
B4 was tested, and the percent of complexes was 46.7%.
In the case of B5, the percent of complexes is reported as 36.6%.
Work on B6 yielded a percent of complexes of 3.5%.
Binder B7 has a percent of complexes of 3%.
B8 was tested, and the percent of complexes was 20.2%.

These binders were tested against anti-CC49 variable region antibodies in the serum of patient three in the same assay as above.
With B1 the percent of complexes was 12.2%.
Work on B2 yielded a percent of complexes of 5.1%.
For B3, the percent of complexes was 3.4%.
In the case of B4, the percent of complexes is reported as 48.2%.
B5 showed a percent of complexes of 32.5%.
B6 showed a percent of complexes of 3.9%.
In the case of B7, the percent of complexes is reported as 0%.
Binder B8 has a percent of complexes of 24.5%.

Each binder was assayed against anti-idiotypic antibodies in the serum of one patient who had received ^177Lu-CC49 (Example V, patient not named) (assay: size-exclusion HPLC competition vs 125I-HuCC49 + patient serum).
With B1 the amount of competitor for 50% inhibition of complex formation was 0.7 Tg.
B2 showed an amount of competitor for 50% inhibition of complex formation of 0.4 Tg.
In the case of B3, the fold better competition than HuCC49 is reported as 2 fold.
B5 gave an amount of competitor for 50% inhibition of complex formation of over 10 Tg.

Each binder was assayed against mouse anti-idiotypic MAb AI49-1 (assay: competition RIA vs 125I-CC49 on AI49-1-coated wells).
For B5, the fold more competitor for 50% inhibition than HuCC49 was 4 to 15 fold.

Each binder was assayed against mouse anti-idiotypic MAb AI49-3 (assay: competition RIA vs 125I-CC49 on AI49-3-coated wells).
B5 was tested, and the fold more competitor for 50% inhibition than HuCC49 was 4 to 15 fold.

The binders below were run against TAG-72 positive bovine submaxillary mucin (BSM) (bovine) (assay: relative affinity constant from competition RIA on BSM).
B1 gave a fold less Ka than HuCC49 of 2 fold.
Binder B9 has a fold less Ka than HuCC49 of 3 fold.
For B10, the Ka was 3.6e+08 M⁻¹.
In the case of B11, the Ka is reported as 1.4e+08 M⁻¹ and the fold less Ka than HuCC49 is reported as 2 to 3 fold.
With B12 the Ka was 5.48e+08 M⁻¹.
With B5 the fold less Ka than HuCC49 was 300 fold.
B7 showed a Ka of 3.2e+08 M⁻¹.
With B8 the fold less Ka than HuCC49 was 2 fold.
B13 was tested, and the Ka was 2.2e+08 M⁻¹.

These binders were tested against anti-CC49 variable region antibodies in the serum of patient six (assay: HPLC, serial dilutions of cold competitor vs 125I-HuCC49 + CP serum).
For B9, the percent competition at 1 Tg was under 25%.
B7 showed an amount of competitor for 25% competition of 60 ng and an amount of competitor for 50% competition of 250 ng.
